Key:
human CD3 (human) = human CD3 (human) (UniProt P07766); experiment: method not stated; KD of the CD3 binding arm, used to calculate fractional receptor occupancy
[1] = molecular target: human CD3 on T cells (human) (UniProt P07766); experiment: cell-based or functional assay
[2] = molecular target: human CEA on cells (CHO/huCEA, ASPC-1, LS1034) (human) (UniProt P06731); experiment: cell-based or functional assay
UniProt P06731, sequence (P06731 35-702): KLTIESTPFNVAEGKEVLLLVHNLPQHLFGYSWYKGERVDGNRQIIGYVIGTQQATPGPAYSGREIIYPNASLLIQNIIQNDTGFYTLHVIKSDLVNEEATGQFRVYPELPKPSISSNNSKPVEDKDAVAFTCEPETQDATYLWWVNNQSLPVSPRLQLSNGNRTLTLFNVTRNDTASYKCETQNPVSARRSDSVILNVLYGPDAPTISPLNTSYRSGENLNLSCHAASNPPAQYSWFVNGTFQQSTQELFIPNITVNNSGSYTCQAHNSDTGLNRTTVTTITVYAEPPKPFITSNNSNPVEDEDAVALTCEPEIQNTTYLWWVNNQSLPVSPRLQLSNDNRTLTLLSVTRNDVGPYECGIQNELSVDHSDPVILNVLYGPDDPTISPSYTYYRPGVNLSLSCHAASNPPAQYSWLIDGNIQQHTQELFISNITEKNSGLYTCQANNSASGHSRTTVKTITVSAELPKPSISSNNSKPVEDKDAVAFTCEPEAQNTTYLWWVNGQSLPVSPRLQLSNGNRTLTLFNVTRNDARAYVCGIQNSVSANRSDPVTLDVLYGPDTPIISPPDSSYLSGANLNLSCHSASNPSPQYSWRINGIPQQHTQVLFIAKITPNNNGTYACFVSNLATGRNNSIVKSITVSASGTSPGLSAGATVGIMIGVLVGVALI

Kd (human CD3 (human)): 307 nM
EC20 of CD25 de novo expression, C/P (PBMC without CD14 cocultured with CHO/huCEA), mean [1]: 0.217 ng/mL
EC20 of CD25 upregulation on T cells (ASPC-1 target cells, PBMC with CD3ε, 48 h), mean of 10 donors [1]: 0.376 ng/mL
EC20 of CD69 de novo expression, A/3 (PBMC with CD3ε cocultured with ASPC-1), mean [1]: 0.105 ng/mL
EC20 of CD69 de novo expression, C/P (PBMC without CD14 cocultured with CHO/huCEA), mean [1]: 0.134 ng/mL
EC20 of CD69 upregulation on T cells (ASPC-1 target cells, PBMC with CD3ε, 48 h), mean of 5 donors [1]: 0.441 ng/mL
EC20 of IFNγ release (ASPC-1 target cells, PBMC with CD3ε, 48 h), mean [1]: 1.56 ng/mL
EC20 of IL2 release (ASPC-1 target cells, PBMC with CD3ε, 48 h), mean [1]: 0.732 ng/mL
EC20 of IL6 release (ASPC-1 target cells, PBMC with CD3ε, 48 h), mean [1]: 1.83 ng/mL
EC20 of IL10 release (ASPC-1 target cells, PBMC with CD3ε, 48 h), mean [1]: 0.686 ng/mL
EC20 of TNFα release (ASPC-1 target cells, PBMC with CD3ε, 48 h), mean [1]: 1.29 ng/mL
EC50 of CD25 upregulation on T cells (ASPC-1 target cells, PBMC with CD3ε, 48 h), mean of 10 donors [1]: 4.65 ng/mL
EC50 of CD69 de novo expression, A/3 (PBMC with CD3ε cocultured with ASPC-1), mean [1]: 1.26 ng/mL
EC50 of CD69 de novo expression, C/3 (PBMC with CD3ε cocultured with CHO/huCEA), one value [1]: 1.34 ng/mL
EC50 of CD69 upregulation on T cells (ASPC-1 target cells, PBMC with CD3ε, 48 h), mean of 5 donors [1]: 13.8 ng/mL
EC50 of IFNγ release (ASPC-1 target cells, PBMC with CD3ε, 48 h), mean [1]: 3.29 ng/mL
EC50 of IL2 release (ASPC-1 target cells, PBMC with CD3ε, 48 h), mean [1]: 2.14 ng/mL
EC50 of IL6 release (ASPC-1 target cells, PBMC with CD3ε, 48 h), mean [1]: 4.04 ng/mL
EC50 of IL10 release (ASPC-1 target cells, PBMC with CD3ε, 48 h), mean [1]: 3.92 ng/mL
EC50 of TNFα release (ASPC-1 target cells, PBMC with CD3ε, 48 h), mean [1]: 6.56 ng/mL
mean EC20 of CD25 upregulation (PBMC with CD3ε cocultured with CHO/huCEA, E:T 10:1, 72 h) [1]: 0.269 ng/mL
EC20 of specific lysis of ASPC-1 cells (PBMC with CD3ε, E:T 5:1, 48 h), mean of 10 donors [2]: 0.097 ng/mL
EC20 of specific lysis, C/P (CHO/huCEA cocultured with PBMC without CD14), mean [2]: 0.371 ng/mL
EC50 of specific lysis of ASPC-1 cells (PBMC with CD3ε, E:T 5:1, 48 h), mean of 10 donors [2]: 2.03 ng/mL
EC50 of specific lysis, A/P (ASPC-1 cocultured with PBMC without CD14), mean [2]: 0.971 ng/mL
mean EC20 of specific lysis of ASPC-1 cells (PBMC with CD3ε, E:T 5:1, 48 h; Example 1, 11 donors) [2]: 0.05 ng/mL
Substance: MEDI-565 (bispecific antibody)

From patent US20140242081A1
